According to the DeepSol protein solubility set:

assay: soluble on expression in E. coli; label from the status in PepcDB or PDB records

Sequence | soluble on expression in E. coli
MSLEKKHSVNVEIENPPGRFFIPEDYVQNPVERLRLYRRLASSLDEEDLEEILEEMKDRFGEPPEEVKLLVDYFRLRVRASKLGIKKIRFDHSMVEIFPSRNSPFLNHPRYDRRSGSVVLYTRKDPVEFLMDMKGIITITTDPNSSSVDKLAAALEHHHHHH | soluble
MGHHHHHHSHMTDCEFGYIYRLAQDYLQCVLQIPQPGSGPSKTSRVLQNVAFSVQKEVEKNLKSCLDNVNVVSVDTARTLFNQVMEKEFEDGIINWGRIVTIFAFEGILIKKLLRQQIAPDVDTYKEISYFVAEFIMNNTGEWIRQNGGWENGFVKKFEPKSGWMTFLEVTGKICEMLSLLKQYC | not soluble
MAHHHHHHMRKKKTKDVPTVFIECALEGEGEKLCVRWLFGMGVGGKPYDADEYDATIVWVPSDYAFHGDKFTSPLRPIPTKNPVAVVRIPVYLCRKKALRSCGGNPMLLSVYGSYGECCDVVFENERLSLLDRGFVWGFAAVCGGSELGAAWHKAGCGLQRATSVNDFVSVSFYVQETGWCAAGQIVTHGSSAGVFVATAAMCVAPSLPLAVIALVPCVDCLTTLMDDSLPLTVSNWEEFGNPRDDADAYRLLRAMLPMDNIPSVGVALPHMLLLTAWHDTRVGFWESLAFTARLRAREMEEGAATR | soluble
MAHHHHHHMMSPFPPLPVYLSGLLTLHVPTRCLHFLVLTPMKTRVGLHRCCASYLRLLSQDRLQLHNPIEFIGALHFFTSLCSPLGVADFLRMEDPAAQEVVVTPWTVEGDVNYDKLIKNFGCQAIDDKLLERMERLTGKKPHHFLRRGIFFSHRDLNLILDAYEKGQPFYLYTGRGPSSESMHVGHLIPFMFTKWLQDTFHVPLVIQLTDDEKFFFKDLTMEEIDKMTTENLKDIIAFGFDPKLTFIFRDFEYVGQMYRIVARIEKAYTASQVRGCFGFKMEDNCGRWMFPAIQAAPSFSAAFPHIFPLQKGNVFCMIPQAIDQDPYFRLTRDVAPRMGYLKPAVIHSKFFPGLSGSKGKMSSSTGAAVFLTDTPKMIKDKINKHAFSGGGADKKEQLLLGGNTNVDVPVQWLRFFLEDDEELKRLQKDYMLGRIMTGDVKKVLIRQITSIVTAHQESRKKVTEADVELFTAVRVMGPAKEEAESRK | not soluble
MIRGNAGIMTNYRLSNLFSLQAELNFTTHGKNYCIDGLPHRNRYGYEVTDQTLINIRLHYLELPLLAKFTLFSSQKVTFDMAAGPFIGYKLAARQKTEGGDYQNTTSDYTRLNAGYQISFGFSVMKKRLFFEMRGSRGFVPINTADATKITTMQGGVAIGYYFFSGKKK | not soluble
MRIPLVGKDSIESKDIGFTLIHEHLRVFSEAVRQQWPHLYNEDEEFRNAVNEVKRAMQFGVKTIVDPTVMGLGRDIRFMEKVVKATGINLVAGTGIYIYIDLPFYFLNRSIDEIADLFIHDIKEGIQGTLNKAGFVKIAADEPGITKDVEKVIRAAAIANKETKVPIITHSNAHNNTGLEQQRILTEEGVDPGKILIGHLGDTDNIDYIKKIADKGSFIGLDRYGLDLFLPVDKRNETTLRLIKDGYSDKIMISHDYCCTIDWGTAKPEYKPKLAPRWSITLIFEDTIPFLKRNGVNEEVIATIFKENPKKFFS | soluble
MKRQLILEDGTVLIGTGFGGEIEKSGEVVFTTGMTGYQETLSDPSYCGQIVTFTYPLIGNYGINRDDFESIHPSVNGLIVNEICDHPSNFRNEISLNDYLKERNIPGLAGIDTRKLTRKIRQYGTLRGRLCNMDADVEYIVSQLKATVFTDHVKRVSTKDPYPSPGRGHRVVLVDFGMKHGILRELNKRDCDVIVVPYNTTAEEILRLSPDGIMLSNGPGDPKDVPEAIEMLKDIIGKVPLFGICLGHQLFALASGANTSKLKFGHRGLNHPVKNIATGKVAITSQNHGYAVEEESVENTELEITHVALNDGTVEGLRHKKFPAFTVQYHPEASAGPEDANDLFEDFLTMIENFKKEGEELCQNA | not soluble
MDESFDSSVVPGSLTSDDRAIFNEQTLKNGDENSKSSLEVMANCVYLANSTILRERKVIPAEYFQDFQVYGDVSGYTLRQDIPEGRSVSSKLLASHDAIRQKLLQKLAIVVEESLNTNPVETFVWTFVYDSTTSASAEIGYGGRKSKFVVNYLNMDDTAQQFCKMFSELRNVLSLLRPLPRGLIPSMKVAYRGEPEFVPGFQQVDDFVNPEQINLGAVSFPHGNGFQFAYASKFMVEQPSAIRPPVEVSHFEDDLLNSTITPIEVVRDNTMNCAENPELDEIYFSPGRQEVRMDEDVANESIRCNPSMASEMMVLQSEYNVLIADNDEVPMVVERERSPIVKAAKKRSTRAPAVPITPTEPASPVESPVKEQPQKAPKAQMRRSSKRTTKNNERCEQKEEEPIVNPKRRSARRLVPPVEVDEQPEEQNDDDAQNSLQIDSDAQNSLQIDSDAIITSPEKRNESKSAIPEEAADLDNTTSEKQESSTARYGVSNTSINRKKPDPVANPVSEEAQVDLANGSIPDKRPRKRKYGRVSSILDVADLPTDDTVEEDVRESPIYGRVPSILDVARAEENDAQNDAQDAQNEIAVEGLADLSIDTEQHEEAAPINVTGHQSESVPIIVTEHQSEEAQTVVTEQPAGAASVIAAERHYGRVSSILDVAGSFADVDPSGAAPAIATERHYGRVSSILDVAGSLSDVDPQEDTESSTQNQSTSKKFKPNPPKAMRYGQSPNMPSRRGN | not soluble
AHHHHHHGSRYFFYPNSVAIFGSFREGAIAREILRNIVEGGFEGKIIPVNPKGGEVEVAGKKFNIKEKLDEPVDVSIIAIPAKLVPELIRGLKGLTKGAVVISAGFSEVGNVELEKELIKAAKEAGIRVIGPNCAGIFGVHAKFYGSFEVRVNPGGLALISQSGAFGGAALAMGNEEGIGFSAFVSYGNAADLDESDFLRFFADDENTRVIGLYIEGVKDGRKFLDALRYAASKKPVIILKAGKSRAGARAAASHTGSLAGSYEIYRAAFRQAGAIEVEEMEELFDAAKAFEMYERAGRRVAIITNSGGPGVLATDKLERLGLEIAKLTEETVEELRSFLPPQCSVKNPVDLIADADYERYKRAIEVVCRDENVDAILVICVPPIFIPSEEIARAVVEANCDKPIIVNFMAGELVREGIKILESKKIKNFPTPERAAKALYWLSLRSSSE | soluble
GFTVALIQGDGIGPEIVSKSKRILAKINELYSLPIEYIEVEAGDRALARYGEALPKDSLKIIDKADIILKGPVGESAADVVVKLRQIYDMYANIRPAKSIPGIDTKYGNVDILIVRENTEDLYKGFEHIVSDGVAVGMKIITRFASERIAKVGLNFALRRRKKVTCVHKANVMRITDGLFAEACRSVLKGKVEYSEMYVDAAAANLVRNPQMFDVIVTENVYGDILSDEASQIAGSLGIAPSANIGDKKALFEPVHGAAFDIAGKNIGNPTAFLLSVSMMYERMYELSNDDRYIKASRALENAIYLVYKERKALTPDVGGNATTDDLINEIYNKLG | soluble
MLAPWQPLLEWWFGWGTSAQAVADEKSTLWFGKHYDADAHALFGDLVEHALAGGLEEWQQTPQGWLGLLILLDQLPRMIYRDTPRAFEGDRRAQVVAMQGLQKGWDYQLLPIQRVFVLLVLEHAEVLDWQNLCVERYRMLLDEQPEANRRLFEGFLDYAEQHQRVIARFGRFPHRNLVLERPSTSEEMDFLLEPGSRF | not soluble
MGHHHHHHSHTRDELRAKALHIPFPVEKIINLPVVDFNEMMSKEQFNEAQLALIRDIRRRGKNKVAAQNCRKRKLENIVELEQDLDHLKDEKEKLLKEKGENDKSLHLLKKQLSTLYLEVFSMLRDEDGKPYSPSEYSLQQTRDGNVFLVPKSKK | soluble
MTETTHVTSCPLNCWDVCGLKVTVNEGKVVRVDGDEHHPITKGNICGRGRMLKERVNAKERLLYPLKKVNGQFVRISWEEALDDIAGKMRKLKEQFGPTAVLHSHDYANNGLLKNLDRRFFNCYGGATELIGSLCWGAGIEAQTWDFGNAYSHAPEDIDNSRHIVIWGRNVARTNMHLFERLLAAKKRGATIVVIDPLFGPTARIADQYVCIKPGMDAFLAMGIMKELLRLGLEDRAFIKQHTIGFDDVKQLLQTISLAEIERHTGVSRDQMTKLARLYGDRPTATYLGLGMQRYANGGNTIRWIDALVAASGNVGIPGGGANFGNLQVGECFDKAALTLPERKTASRTWTMMKQGEEILRADDPPIGMVIVTCGNPLAQVPNTNLMKKAFASIETVVVFEQFMTDTAAMADYVLPVAASFEEEDVYCSSMYHAYLNYGPKLVDPPGEAKPDLWIWTELAKRLGFGDDFAYTREQFLAMALRPLEHHGITLKRLKTEHRVLLPVEPVPWRDRRFQTPSGKYEFTSTIAKKKGMDGRLQIMYPAESEESNPALAAKYPYRLLTIHPLRSNHSQHYPLIPALQTVRIEVAADVAAAKGLADGDRARVYNDRGSLVGTVKVLDGAYPGTINIDEGQWGVFGGPVNVLTSDLESDNGCGSALYDCLVNIEKVTSEAK | soluble
